Eight molecules from paper PMC8825819, “Structure of Escherichia coli O157:H7 bacteriophage CBA120 tailspike protein 4 baseplate anchor and tailspike assembly domains (TSP4-N)” (Scientific Reports, 2022) can be followed below.

The target in series [1] is TSP4 devoid of the AD-XD1 domains, residues 185-1036 (bacteriophage CBA120) (UniProt G3M192). As to the kind of experiment: AUC; sedimentation velocity of single proteins and of mixtures, PBS pH 7.4, 20 °C, absorbance at 280 nm, 30-50 krpm; c(s) by SEDFIT; Kd and koff by Lamm equation modelling with a two-site heterogeneous association model A + B + B = AB + B = ABB (A: TSP4-N335 hexamer, B: partner TSP trimer; two symmetric sites, no cooperativity).

Series [2] concerns the target TSP4-N335, the 335 N-terminal residues of tailspike protein 4 of bacteriophage CBA120 (AD-XD1-XD2-XD3) (bacteriophage CBA120) (UniProt G3M192). Described as above.
The target in series [3] is TSP4-N490 (AD-XD1-XD2-XD3 region followed by the D1-D2 head region of TSP4) (bacteriophage CBA120) (UniProt G3M192). The series is described as above.
Series [4] concerns the target TSP4-N181 (AD-XD1 of TSP4) (bacteriophage CBA120) (UniProt G3M192). The series is described as above.
The target in series [5] is TSP4-N253 (AD-XD1-XD2 of TSP4, lacking XD3) (bacteriophage CBA120) (UniProt G3M192). The series is described as above.
Series [6] addresses TSP4-N335, the 335 N-terminal residues of tailspike protein 4 of bacteriophage CBA120 (AD-XD1-XD2-XD3) (bacteriophage CBA120) (UniProt G3M192). As to the kind of experiment: AUC; sedimentation equilibrium, PBS, 20 °C, 3 or 4 speeds (3000-12,000 rpm); global fit with SEDPHAT; for mixtures the two-site model A + B + B = AB + B = ABB.
In series [7] the target is TSP4-N181 (AD-XD1 of TSP4) (bacteriophage CBA120) (UniProt G3M192). As to the kind of experiment: AUC; sedimentation velocity of single proteins and of mixtures, PBS pH 7.4, 20 °C, absorbance at 280 nm, 30-50 krpm; c(s) by SEDFIT; Kd and koff by Lamm equation modelling with a two-site heterogeneous association model A + B + B = AB + B = ABB (A: TSP4-N335 hexamer, B: partner TSP trimer; two symmetric sites, no cooperativity). The source holds these as a separate data set.

Series [8] deals with TSP4-N335, the 335 N-terminal residues of tailspike protein 4 of bacteriophage CBA120 (AD-XD1-XD2-XD3) (bacteriophage CBA120) (UniProt G3M192). Described as above. This is another data set of the same source.
Series [9] has as its target TSP4-N490 (AD-XD1-XD2-XD3 region followed by the D1-D2 head region of TSP4) (bacteriophage CBA120) (UniProt G3M192). The description is as above. The source holds these as a separate data set.
Series [10] concerns the molecule itself. The series is described as above.
The target in series [11] is TSP4-N335, the 335 N-terminal residues of tailspike protein 4 of bacteriophage CBA120 (AD-XD1-XD2-XD3) (bacteriophage CBA120) (UniProt G3M192). As to the kind of experiment: AUC; sedimentation velocity in 50 mM TRIS pH 8.0 or HEPES pH 7.3, 150 mM NaCl, 0.1-0.5 mM Zn2+ (100 μM ZnCl2 in the legend).
Series [12] deals with the molecule itself. Described as above.

Broadly, the stoichiometry N is a count of units in the complex or per binding partner. As to “TSP4 devoid of the AD-XD1 domains, residues 185-1036 (from UniProt G3M192 185-1036) (domain or fragment)”, in series [1], the stoichiometry N came to 3.
As to “TSP4-N335, the 335 N-terminal residues of tailspike protein 4 of bacteriophage CBA120 (AD-XD1-XD2-XD3) (from UniProt G3M192 1-335) (domain or fragment)”, the stoichiometry N in series [2] (mixed monomer and hexamer sample) is 3; in [2] (purified single-species sample), 6.
For “TSP4-N490 (AD-XD1-XD2-XD3 region followed by the D1-D2 head region of TSP4) (from UniProt G3M192 1-490) (domain or fragment)”, the stoichiometry N in series [3] came to 6.
Regarding “TSP4-N181 (AD-XD1 of TSP4) (from UniProt G3M192 1-181) (domain or fragment)”, in series [4], the stoichiometry N came to 6.
Take “TSP4-N253 (AD-XD1-XD2 of TSP4, lacking XD3) (from UniProt G3M192 1-253) (domain or fragment)”: the stoichiometry N in [5] is 6.

B1: Tailspike protein 2 of bacteriophage CBA120 (natural protein, UniProt G3M190 1-921, looked up)
chain: MTRNVEELFGGVITAPHQIPFTYKSNVGGETFLSLPFYPVTGVVTINGGMQVPLDNFEIEGNTLNLGRALSKGDVVYCLFDKILSPEDTAKGIRIYKFQAVGGETEFTPDFTSYGVQSLYIGGEYKTPEIEYSYDSTTGKVSLQTALSAGVWVVAEMSVKQPNISPAFDRSIQEIARSANVKDSEVIVSTDTISLLDGKKVVYDIATQTSYGLPTIPDGSVISSVSAGKLNYNPGDVQVDLLPLEDSFINVINTLGRNDGAKYIGECHSVADLRNTEPTMDGQRIILKQHTAGTLLGGGVFRALIDGTGKTDNNGTVIKTVGGAAWLRVNADRVNPFMFGALGGSNDDTIPVQSCVDSGKATQLTDAHYVSNIQLKYNTSSIYGSGLHYSRLHQLPSATGNCITIKDTCSLIVLDAFGVYGTGAQQGTSFTAGTTGIYVETPSGLSADYPFHTTADPRRDLCISKVHIAGFDEYGLNIDSGNFSVTTDSLLVNHINQVGVRCATTDWTWTNIQVNTCGKQCLVLDGCGNGRIIGGKFIWANWQPYGTVGQFPGITINNSQNMVINGIEVQDCGGNGIEISESYSISMNGLNTNRNGINANNTFYNIVFNKSDAVINGFVGLNYAANSGSGANSSAGNFQFLSNDCSVTINGVVETGYMGINFIGDNNIINPTNSDLSINGLVNYSKTGLQTMNETPTFDGVSTTPVYVSVPSSVGQVNGLRLSQANKDKLLYSRTAGPEGITMAAVIVPTISGAEVFNFMAIGSGFSDTSNSLHLQLVIDASGKQTIALLLGGDGTTQILSGDLPNDLKLQSGVPYHIAIGAKPGYFWWSILNIQTGKRIRRSFRGAYLAVPFNSIFGLTSSLTFFSDSNAGGDACSGVGAKVYVGMFSSENDYVASRYYNLINPVDPTKLISYRILDSSI
notes: Homotrimer by SV (MWcalc of the trimer 297 kDa); also called TSP2
In general, Kd refers to the concentration at which binding is half-saturated. One may read the koff as the rate constant with which the complex falls apart. Take B1: the Kd in [6] came to 75 nM; in series [8], 110 nM. The stoichiometry N (TSP2:TSP4-N181 (chains)) came to 0.5 in series [7] (one trimer bound per hexamer) and 1 in series [7] (two trimers bound per hexamer). In [8], the off-rate (koff) is 0.00025 s⁻¹. In addition, the stoichiometry N (TSP2:TSP4-N490 (chains)) in series [9] (one trimer bound per hexamer) turned out to be 0.5; in series [9] (two trimers bound per hexamer), 1. For the same molecule, the “stoichiometry N” value in series [10] came to 3.

B2: TSP1 head, residues 14-166 (D1-D2 domains and the alpha-helical neck, without the 13 N-terminal amino acids) (domain or fragment, bacteriophage CBA120, UniProt G3M189 14-166, looked up)
chain: GILTNKQAVARHFGVKQSEVVYFSVGVDLGGYKVIYDKETQRAYSLPVGIASGTTAVSLSTAAVLVHSAGSVDLGSLAVSREEYVTLPGSFDSGSTLNVKNELLTYTDGKYRWDGILPKTVAPGSTPASTGGVGLGAWISVGDASLRTQLANG
notes: TSP1 of phage CBA120, D1-D2 head and neck, residues 14-166; Trimerisation was promoted by Zn2+; also called TSP1_(14-166); TSP1-N_(14-166)
Take B2: the stoichiometry N (TSP1 (14-166):TSP4-N335 (chains)) in series [11] (one trimer bound per hexamer) was 0.5; in [11] (two trimers bound per hexamer) it was 1. Moreover, the “stoichiometry N” value in series [12] was found to be 3.

B3: Tailspike protein 1 of bacteriophage CBA120 (natural protein)
chain: MNEMFSQGGKGSTGILTNKQAVARHFGVKQSEVVYFSVGVDLGGYKVIYDKETQRAYSLPVGIASGTTAVSLSTAAVLVHSAGSVDLGSLAVSREEYVTLPGSFDSGSTLNVKNELLTYTDGKYRWDGILPKTVAPGSTPASTGGVGLGAWISVGDASLRTQLANGDGSLIGIHPQGTLNNVLTVRTPEQYNAVGDGIADDTSKLKEMLSDINNVPETLPDAAAVNSYMEQVAVKIDLTKLYRFTETLYIPPGVSIEIPTSNFFTRECKQGLFYDPVDKNTAAISLMVYRKQPDGSYKLNKDVDYYPTGLDIDNGDAITCARKIDINNLNLITAPGVKVGVKWIGGAGCTTKGLSIGENTGSDITTARLPRVGLLQSASWGSIHENLRILYKTQGAVFIDSNGGAAVNNAYISRLGNTNGELEQAVYKPAGFTEVGDVAVTQFAGSEVKFNSPIIEQASFDFVHAGRDTDSYGLFMVDKPHIESSGGKKKHSFYLINTSSNVTLSGVGLSGQDPDLDSMYFLKNCPETARNVVRGQMPISGVKLVRGTGNYPTLVLDCTNMGSQFQFGEVGDIFYIKDVVGVKADTLYIDPVNGNNYNWGTNGTKPIRELTNIAKICQLFRCKSVYLNAGESVITSNTELPMVVFEGPGSLKANSGSSFLIKAGGTLSLIGLSGISTDGGHMFRVSTVEKVNIHTNCSVNAGAAYVVLSEVQGNIEYRQLFYSVNCSKYIGATAGQTIAGIMVKTATRPTGIDAAPVDGNVSLTYKIIES
notes: Homotrimer by SV (MWcalc of the trimer 248 kDa); also called TSP1
For the molecule B3, the dissociation constant (Kd) worked out at 80 nM in [6] and 60 nM in [8]. In series [8], the koff stood at 0.0001 s⁻¹. Also, the stoichiometry N (TSP1:TSP4-N335 (chains)) in series [8] (one trimer bound per hexamer) stood at 0.5; in series [8] (two trimers bound per hexamer), 1. The “stoichiometry N” value in [10] was determined as 3.
